Measurements from publication PMC4383081.

Molecular target: microtubules polymerised from bovine brain tubulin (taxol-stabilised) (bovine) (UniProt Q6B856)
Experiment: stopped-flow mant-ADP release kinetics; kinesin·mant-ADP (1:1) mixed with varying microtubule concentrations plus MgATP, 298 K; fitted rate constants against microtubule concentration; apparent

## N255K point mutant of the human monomeric kinesin K349 construct (from UniProt P33176 1-349) (domain or fragment)
  K0.5 (apparent microtubule dissociation constant): 21.3 µM
